Source: the DeepSol protein solubility set

Assay: soluble on expression in E. coli; label from the status in PepcDB or PDB records
With “MGSDKIHHHHHHMKINMPENVQTILNKLHSNGYQAYIYGACIRDYLLGKEPINWDITTNALPNNTVVIFDENEGFTSIPSVEDYGIVTLHFKGESCQVNTFRTGEARRFADDISEDLLHKDFTMNSIAYNEQAGIVDPYNGVGDIEKRLIRCAQNPYEQMQEDSARILRAVRFESQLGFKIEAELLQAMKDLKDTVPASGSRVRNEFIQLLLSEQPSRSIRRLLELGLLERLIPELMPAIGFDTHSSYHDKDVFEHSLVVLDNTEPNLTLRLAALLHDIDKPNCLTIDEDGEGHCYGHASGGSEMAQAILGRLNFDRKTIQAVSSLIKEHMNDFGNISDLSIKRLIRRVGPDNIDRLFELQLADIKGSALSSRDPERITKIRNKCFEVLSRREPLTVHDLDISGYDLLSLGYPPGKKIGETMDYLLDQVIDNPSLNQRDTLIALLKNRK” the “soluble on expression in E. coli” value was “not soluble”.
For “MGSDKIHHHHHHMKISEVATPNFLLDLDQLEKNIDKIQQICTNNNKQLWPMLKTHKSTYIARLQKNAGASGFLVGTLDEGEALIKAGFEDIMLAYPYMGEVNINRIVTMASKINLICATDNIECAKAYSEAFSKSKIECKLLIIVDCGLHRFGVEPEKVVELATEISKLENIKIVGISSHPGQVYGCSSPEGVPDVCVQEDSSMEKAYKALTDNGFNIEIVASGSTPTVESEAACKTITAVRPGNYVYYDAIQIGLGCATEDMCALTVVCTVISKNSSGYYLIDCGSKCLGLDKGAHGNSSIVGYGRVCGHPELTIDSLSEEVGKIKVNGETDIKIGDRIRIIPNHSCSTANLTSNLLGFRGDTIEKVIEVDIRENSKQIIL”, the “soluble on expression in E. coli” value was “not soluble”.
With “MGSDKIHHHHHHMKIVFLAPFGIRPKGTVVARMVPLAAELQALGHRVTIVAPPYTNPEDSGHTEEIRGVRLRNIRLAPGGAALSAPVMAWRMYRAAREEEPDLIHLFKPKGYGGLAAMLHLLTASRSSPLFLDTDDWEGRGGMNALHDYSPAQRLLFAFQEEWLPPRVRGVTVASRELEARIAAMGVAPERLLYLPNCVDDQPLGNGARVRARLGIDGNAPVVLLYTRFFEFSQEDLHRVFAGLSRKVPGIRFLVVGTGRNREEELLAAAARAEGFADSLHIAGWVEPDELPHWLAAGDVALYPFADTLVNRAKCPAKLTELMRAGVPVVADRVGQIAEYVEDGISGILCRPSAPDEMIARIAELLADPVRRRAVGTAGRERILSRFNWRDAAARLDAFYDNLTRRRNLA” the “soluble on expression in E. coli” value was “not soluble”.
For “MGSDKIHHHHHHMKIYLVGGAVRDSLLGLPVTEKDWVVVGATPEHLLAQGYQQVGKDFPVFLHPISRDEYALARTERKSGKGYTGFVCHAEPDVTLEQDLLRRDLTINAIARTERGDLIDPYHGRRDLDNRVLRHVSDAFSEDPLRVLRVARFAARFAHLGFQIAEETMALMQKMAHEGELAFLTPERVWKETEKALGTSSPDVYFQVLRDCGALAVLFPEIDNLYGVPAPAKWHPEIDTGIHTMMTVAMAARLSPDIDVRFATLCHDLGKGLTPPELWPRHLGHGPAGVKLVEALCQRLRVPNPIRDLAKLVAEYHDLVHTVQVLQPKTLLKLFDAIDVWRKPQRLEQLALTSEADARGRTSFEENPYPQGNYLREAFRVASQVSSASVVADGFKGIDVRNELARRRIHALADWKAQQPDVSSTS”, the “soluble on expression in E. coli” value was “not soluble”.
In the case of “MGSDKIHHHHHHMKKFLCFIMSVGLILSLVGCGKSGKTNIKVPAKSIDGKDSSISLDIMATNKFLYNVIKDISGNRHNVQFMFKNDIDVKQFDYTSDSINNVSKYNIFMYLGADFEPWASDFIGKLDKNSIATVDMSRGTKILNLDDKVQYGNITVEKNSYYWTDLNNYKTMLVNIKNSLEEKDPKSRDLYEKNFAAYIKKVNDCEKEFKGINDKLKGYTFVTNSSNFDYFFNYAGLDSVKVSEDELSKPDTSKELNDKLKDKEKICYIYSDDGSVQSNNAVIQKYKMKTLKFVTYDENSDYICIIKDNIKSMKELIK”, the “soluble on expression in E. coli” value is reported as “not soluble”.
For “MGSDKIHHHHHHMKKITKIEGNLANSFIKPKTRVVAYCRVSTDSNEQLVSLQAQKAHYETYIKANPEWEYAGLYYDEGISGTKKENRSDLLRMLSDCETGRIDLIITKSISRFARNTTDCLEMVRKLIDLGVHIYFEKENINTGSMESELMLSILSGLAESESISISENTKWAIQRRFQNGTFKISYPPYGYQNIDGQMIVNPKQAEVVKYIFAEVLSGKGTQKVANDLNQKGIPSKRRGRWTATTIRGILTNEKYTGDVILQKTYTDSHFNRHTNYGEKNMYLVENHHEAIISHEDFQAVDAILNQRAKEKSIEKRNSKYLNRYSFSSKIICSECGSTFKRRIHSSGRKYIAWCCSKHISNITECSMQFIRDDDIKTAFVTMMNKLIFGQKFILRPLLEGLRNQNNAASFHRIEELEIKIENNMEQSQVLTGLMAKGYLEPALYNKEKNSLVQERERLLAEKDQLTRFVNGNLAKVEEVNHLLRFATKSKMLTAYEDELFENYVEKIIVFSREEVGFELKCGITLKERLVN”, the “soluble on expression in E. coli” value was “not soluble”.
With “MGSDKIHHHHHHMKKLVATAPRVAELVEYHDREVVEDEVKIKVQFASPKHGTEVVDFRGISPFIDEEFSPEWNLFVSRETNSARGIVFGEFQLGNMVVGEVVECGSKVTEYALGDIVCSYGPIMETVIVKAVDNYKLRKLPKGANWKNAVCYDPAQFAMSGVRDAHVRAGDYVVVVGLGAIGQIAIQLAKKAGASVVIGVDPLSHRREIAEKHGADATFDPITTDVGLEVKRLTGKLGADSIIETSGNAAALQAALRGIAYGGTISYVAFAKPFPEGFNLGREAHFNNAKIVFSRAASEPNPDYPRWDRKRIEETCWELLMNGYLDCTDIIDPVVPFADSAESYMKYVDQQPDLSIKMGITL” the “soluble on expression in E. coli” value was “not soluble”.
In the case of “MGSDKIHHHHHHMKKNILHIHGFNSSPLSLKAEQTRKYMAKNFPNVGFYCPQLATTPANAMSQLEQLIETHDSNAKWYLIGSSLGGYFAHYLAKKYDCLAVLVNPAITPYELLHDYIGEQVNPYTEEVYQVTEDHMQQLKALEQTAPTIDCTEKNNYLVMVQTGDEVLNYQQAVEKYQYCRLIVQEGGDHSFINFDNCLPTISDFFQLDNTKRINSR”, the “soluble on expression in E. coli” value is reported as “not soluble”.
With “MGSDKIHHHHHHMKKRLLLNTDDYGWDLDANAAIIDLLQSDSIHNVTLLANYCDSDVLRAISPFQDRASLGIHVCLNSGQALSGSTRSTLHDACGNFYDSKTLFQRAFFGELNYSDVLLEIKSQYYYLSDHGIDITHADSHQHIHQYPFLSGMITQALHEIGVKNIRRCRPLEVKNIRRYLIYFFYQCTKNNLNKFNSPDVLVTDFTHSGFSFSTDVQPILKKLSLSHYSTIEWMCHPAREDKAGSYLQRKKEYDFLKKCDWDILLNGTGIERSQYRYI” the “soluble on expression in E. coli” value was “not soluble”.
With “MGSDKIHHHHHHMKKVTLLVLDGFGVGAMADCEKVKPEDVNANTYKHLREAVDIHIPTLYQLGLGNIVDHLDTARAAYGRCDLAHHGADTFMGHQELMGSKPGVPQKRLMSEVGATIKKNLEKHGYDVRDPVEGAPVLLVNEAVVVGDNLESEVGNIINVVGDFRKLSFEQTIEVGKVVRSSVDTSRVIVYGNKEKTSIDLILSTIKERHPGQWGVDSPKANVYGEGYQVLHLGYGVDYEKQFAHLAEKQRLPVYRIGKTADVIQASGYHNPVVSTRKVLEVYQHEYSKSERDSVFLVNVQETDLAGHKEDCLWYKEVIEEVDRFLASFIDELDEEDLLIITADHGNDPTIGHSNHTREQTPVIIVGPQVRPISIGTRQTMADLAATMADYMGVAPPQYGTSFLHQILR” the “soluble on expression in E. coli” value was “not soluble”.
In the case of “MGSDKIHHHHHHMKLLILGNHTCGNRGDSAIMRGLLDAIRQQAPEAEMDVMSRFPVSSAWLQGRPIIADPLYQLSQKQQAAAGLNGRVKKVLRRRFQHKILLSKVAQEGSLRNFAIAPEFAEFAQFIAQYDAVIQVGGSNYVDLYGLTHFEYPLCAFMANKPIYMVGHSVGPFQNPDFNQLANYVFGRTSALILRETVSRDLMTAAQIDTRKVEQGVDTAWLVERRHDEFVASYAVQHWLDVTARRKTVAITLRDLEPFDKRLGTTQQAYEQAFAQVVNRLIADGYQVLALSTCTSIDRYNRDDRMVALRMAKYVNDSENFHIAMDELNDVEIGKILASCVLTIGTRLHSAIISMNFGTPAIAINYEHKSAGIMQQLGLAELAIDIRHLLNGSLQSVVADTLNQLPALKAKVANAVTEERAKGFTMIKSVLDRIREAQ”, the “soluble on expression in E. coli” value is reported as “not soluble”.
For “MGSDKIHHHHHHMKLLLTRPEGKNAAMASALDALAIPYLVEPLLSVEAAAVTQAQLDELSRADILIFISTSAVSFATPWLKDQWPKATYYAVGDATADALALQGITAERSPADSQATEGLLTLPSLEQVSGKQIVIVRGKGGREAMADGLRLRGANVSYLEVYQRACPPLDAPASVSRWQSFGIDTIVVTSGEVLENLINLVPKDSFAWLRDCHIIVPSARVETQARKKGLRRVTNAGAANQAAVLDALGM”, the “soluble on expression in E. coli” value was “not soluble”.
With “MGSDKIHHHHHHMKLLMLCREPRLYSCQRLKESAEDNGHQIDILDPNRCLLKLSKNAPHFELYYQVNSKSEPYLLPDYDAIIPRFGSTSTRMGCAVLRHFRTKNIFCLNDDVAFLKARDKWLSLQLLTEQGIAVPNSALSGAEFSATQAILQIQSPTILKTLHGSQGIGVILAENRKSAVSIMETLTQADVPLLMQDFIQEAQGTDIRCFVIGDKVVATMQRIGQEDEFRANFHRGGSAEKIQLTEQEKVLALKATKCLGLDVAGVDLIRSKQGLLVLEVNASPGLEMIEKTSGIDIALQMIVHIEKQFKR” the “soluble on expression in E. coli” value was “not soluble”.
With “MGSDKIHHHHHHMKLNLAVFAYHLADYAPRLYDSEVHGLGIGDVRFIDRQETFLSESVYIGAWDKLQALIRPPSYVVCIGRDETTDRWLEKHGVKALILDSEVELNEVFERLQDIFQHYNRLESELLEAVLCKEPLNVLLNICAKFFANPTFITDAALCLVATCDNFAHPETDRAWQETIESGRSSSELLLLMKRKKLTNLLNTSRKAEFVNVGENYSKIICANYFDQEVRIATFTVSEAYTPLSPLQAGLVDHVAKLLTAEVRKQHKASSRYLFAIRSNISNLLHGQKIDGAILKTNFAHIGWTDQEDYRLLKIPLTAAELADGTAGHNRKIYESIFPHYVSLDLNEVLILVIRCARDTEADKRRFAELKKHLKNENAACGVSKTFHDFDMLGEEYKLANAALEIGSWKYPKEALYFYEDMMLEHLFSEGSRIFNLRSLCHDSVLRIAEHDQQNNSSLLQTLKVYLLQEKSLLAASQELHIHRNTLVYRLGKIEQISGLDLNSPLIRLQGILSCLILEYLNGLEEKAPD” the “soluble on expression in E. coli” value was “not soluble”.
In the case of “MGSDKIHHHHHHMKMTFCRAVCLAAAFLLMGCDEAPETTTASPAAQVLEGKTMGTLWRVSVVGIDAKRAAELQTKIQTQLDADDWLLSTYKNDSALMRFNHSRSLAPWPVSEAMADIVTSALRIGAKTDGAMDITVGPLVNLWGFGPDRQPLHIPTPAQIDAAKAKTGLQHLQVIDRAGHQFLQKDLPDLYVDLSTVGEGYAADHLARLMEQEGIARYLVSVGGALSSRGMNAQGQPWRVAIQKPTDRENAVQAIVDINGHGISTSGSYRNYYELDGKRVSHVIDPQTGRPIEHNLVSVTVIAPTALEADGWDTGLMVLGTQKAQEVVRREGLAVFMIMKEGEGFKTWMSPQFKTFLVSDKN”, the “soluble on expression in E. coli” value is reported as “not soluble”.
For “MGSDKIHHHHHHMKPIATPDPIIAQAVKLFAERGYAETNLPSIAKAANVAVGTIYRHFKGKEDILNTAFTDIMDYFHDSLADAANCNVSDPESTFSHLFDAAALTMQHYPTELHFIEQNVFNEALRPESRAARDRVTTLISNMLMEGQEHGVIVKADVRTQLAILYGSIVSMIDIVWVQQQLQGHVPDQDQLALELKNQIWNGLTCERSIFQ”, the “soluble on expression in E. coli” value was “not soluble”.
With “MGSDKIHHHHHHMKQPLYQQIIDYLQNEIDSGRLPVGAQVPTEKELSAQFNVSRITSKRALTELETQGVIQRHQGKGSFVQAPKHPLHTSLNKVLFLLPFADDLSVGNFYSGLAPTIQAAGLEVFMTSPNFLREKNAADIVNEFAGLVYYAATSNDYLDLLFELALMNFPVVVLDKKIHDLPFATIQSDNFAGGKTATERLIGLGHTKIGYILSGSPALQSVRQRYLGYLQALKEANLAFHTAITETNLLDEHNFKQYFEAHQLTAVVCDNDFSALHCLRNCKNLGIHVPEELSIIGFDDIQAAAFVEPPLTTMAQDFKEMGKLAGEVLLQTMQQDLQIIEDIQVPVTLIERETISTVSK” the “soluble on expression in E. coli” value was “not soluble”.
